# PMC8155215, “The splicing factor XAB2 interacts with ERCC1-XPF and XPG for R-loop processing”
# T1: recombinant human XAB2 (Homo sapiens, UniProt Q9HCS7 1-855)
# T1 sequence: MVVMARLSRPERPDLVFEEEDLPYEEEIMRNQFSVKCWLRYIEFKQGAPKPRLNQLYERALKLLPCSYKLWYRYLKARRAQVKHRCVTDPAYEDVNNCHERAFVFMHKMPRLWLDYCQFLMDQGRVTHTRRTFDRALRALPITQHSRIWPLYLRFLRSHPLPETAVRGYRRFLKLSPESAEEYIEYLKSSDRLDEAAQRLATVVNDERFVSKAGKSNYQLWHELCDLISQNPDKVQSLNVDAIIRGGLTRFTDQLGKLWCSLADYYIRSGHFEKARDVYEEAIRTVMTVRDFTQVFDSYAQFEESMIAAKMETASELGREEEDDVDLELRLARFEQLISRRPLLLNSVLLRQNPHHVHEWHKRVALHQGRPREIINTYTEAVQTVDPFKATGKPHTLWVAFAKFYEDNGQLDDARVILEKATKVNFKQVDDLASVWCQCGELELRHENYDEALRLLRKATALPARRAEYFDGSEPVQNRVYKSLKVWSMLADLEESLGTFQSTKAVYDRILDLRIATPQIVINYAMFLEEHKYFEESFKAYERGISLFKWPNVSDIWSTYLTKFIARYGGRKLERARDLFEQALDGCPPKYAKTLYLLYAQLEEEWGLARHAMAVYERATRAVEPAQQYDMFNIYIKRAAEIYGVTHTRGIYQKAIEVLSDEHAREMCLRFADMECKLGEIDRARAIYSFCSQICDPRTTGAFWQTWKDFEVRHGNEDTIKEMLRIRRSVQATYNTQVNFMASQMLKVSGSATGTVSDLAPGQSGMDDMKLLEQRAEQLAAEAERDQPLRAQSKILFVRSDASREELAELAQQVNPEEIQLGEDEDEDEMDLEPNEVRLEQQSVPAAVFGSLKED
# Molecular target: T1, recombinant human XAB2
# Experiment: EMSA; 0.1-10 nmol protein, 100 pmol RNA; no consumption of RNA oligo; 10 mM Tris-HCl pH 8.0, 50 mM KCl, 10% glycerol, 0.5 mM EDTA, 0.5 mM DTT, 1 ug/ml BSA, 6 mM MgCl2, 30 min at 4 C, 10 ul, 100 pmol RNA; 4% native PAGE in 0.5x TBE pH 7.5
# Conditions: protein: commercial; label: 5' biotin; single strand
binder,measurement,value
AUUGGAACGAUACAGAGAAGAU (ssRNA) [XAB2RBS],binding result,no binding
